Test [1] addresses T1, human CLEC12A on cells (HL60, PL21, Ba/F3-hCLEC12A) (human, UniProt Q5QGZ9 1-265).
T1 construct: Endogenous on the AML lines HL60 and PL21; brought into mouse Ba/F3 cells by retroviral transduction; The cell line stands under assay; also called CLL-1
T1 sequence: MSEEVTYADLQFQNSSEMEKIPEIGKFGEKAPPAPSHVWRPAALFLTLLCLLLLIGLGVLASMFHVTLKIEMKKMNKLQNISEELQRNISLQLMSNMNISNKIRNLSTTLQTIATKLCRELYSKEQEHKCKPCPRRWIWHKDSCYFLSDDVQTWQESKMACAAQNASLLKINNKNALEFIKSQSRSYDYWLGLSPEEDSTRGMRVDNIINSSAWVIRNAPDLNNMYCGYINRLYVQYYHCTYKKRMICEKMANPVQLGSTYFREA
Description: flow cytometry, Ba/F3-hCLEC12A cells. For orientation: Flow cytometry measures light scatter and fluorescence of single cells or particles in a stream.

Test [2] deals with T1, human CLEC12A on cells (HL60, PL21, …). Kind of test: flow cytometry, PL21 cells.
The target is the same in test [3]. Kind of test: flow cytometry, HL60 cells.
For test [4], the target named is T2, recombinant human CLEC12A-His (human, UniProt Q5QGZ9 65-265).
T2 construct: also called hCLEC12A-His; hCLEC12A
T2 sequence: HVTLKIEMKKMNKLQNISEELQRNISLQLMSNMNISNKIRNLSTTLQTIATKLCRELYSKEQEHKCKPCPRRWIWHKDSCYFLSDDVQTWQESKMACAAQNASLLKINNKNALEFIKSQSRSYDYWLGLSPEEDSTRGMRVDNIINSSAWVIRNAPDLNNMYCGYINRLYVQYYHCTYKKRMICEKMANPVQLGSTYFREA
Description: SPR screening, semi-purified.

What is called EC50 is the midpoint of the concentration-response curve. As usually defined, the Kd is the equilibrium constant for the complex coming apart. The koff is a measure of how fast the partners let go of each other. In general, kon refers to the rate constant with which the complex forms.

Where a chain is given by its changes, count along the chain named.

B1: AB0300 (other, name in EU numbering)
chain: QLQLQESGPGLVKPSETLSLTCTVSGFSLTNYGLHWIRQPPGKCLEWIGVIWSGGKTDYNPSLKSRVTISKDTSKNQFSLKLSSVQAADTAVYYCAKYDYDDSLDYWGQGTLVTVSSGGGGSGGGGSGGGGSGGGGSDIQMTQSPSSLSASVGDRVTITCHASQNINFWLSWYQQKPGKAPKLLIYEASNLHTGVPSRFSGSGSGTRFTLTISSLQPEDIATYYCQQSHSYPLTFGCGTKLEIKGSDKTHTCPPCPAPEAAGGPSVFLFPPKPKDTLMISRTPEVTCVVVDVSHEDPEVKFNWYVDGVEVHNAKTKPREEQYNSTYRVVSVLTVLHQDWLNGKEYKCKVSNKALGAPIEKTISKAKGQPREPRVYTLPPCRDELTKNQVSLTCLVKGFYPSDIAVEWESNGQPENNYKTTPPVLVSDGSFTLYSKLTVDKSRWQQGNVFSCSVMHEALHNHYTQKSLSLSPG
heavy: EVQLVESGGGLVKPGGSLRLSCAASGFTFSSYSMNWVRQAPGKGLEWVSSISSSSSYIYYADSVKGRFTISRDNAKNSLYLQMNSLRAEDTAVYYCARGAPIGAAAGWFDPWGQGTLVTVSSASTKGPSVFPLAPSSKSTSGGTAALGCLVKDYFPEPVTVSWNSGALTSGVHTFPAVLQSSGLYSLSSVVTVPSSSLGTQTYICNVNHKPSNTKVDKKVEPKSCDKTHTCPPCPAPEAAGGPSVFLFPPKPKDTLMISRTPEVTCVVVDVSHEDPEVKFNWYVDGVEVHNAKTKPREEQYNSTYRVVSVLTVLHQDWLNGKEYKCKVSNKALGAPIEKTISKAKGQPREPQVCTLPPSRDELTENQVSLTCLVKGFYPSDIAVEWESNGQPENNYKTTPPVLDSDGSFFLYSWLTVDKSRWQQGNVFSCSVMHEALHNHYTQKSLSLSPG
light: DIQMTQSPSSVSASVGDRVTITCRASQGISSWLAWYQQKPGKAPKLLIYAASSLQSGVPSRFSGSGSGTDFTLTISSLQPEDFATYYCQQGVSFPRTFGGGTKVEIKRTVAAPSVFIFPPSDEQLKSGTASVVCLLNNFYPREAKVQWKVDNALQSGNSQESVTEQDSKDSTYSLSSTLTLSKADYEKHKVYACEVTHQGLSSPVTKSFNRGEC
notes: Positions are EU numbers, not positions counted on the entries; also called AB0237si
In the case of B1, the EC50 is 2.92 nM in test [1], 1.58 nM in test [2] and 1.5 nM in test [3]. The “FOB (fold over background)” value in test [1] stood at 368 fold; in test [2] it was 18 fold; in test [3], 65 fold.

B2: AB0188 (other)
chain: DIKMTQSPSSLSASVGDRVTITCKASQDIYNYLSWFQQKPGKAPKPLIYRANILVSGVPSRFSGSGSGQDYTLTISSLQPEDIATYYCLQFDAFPFTFGCGTKLEIKGGGGSGGGGSGGGGSGGGGSEVQLVESGGGVVQPGGSLRLSCAASGFTFNSFGMHWVRQAPGKCLEWVAFISSGSTSIYYANTVKGRFTISRDNSKNTLYLQMNSLRAEDTAVYYCARDGYPTGGAMDYWGQGTSVTVSSGSDKTHTCPPCPAPELLGGPSVFLFPPKPKDTLMISRTPEVTCVVVDVSHEDPEVKFNWYVDGVEVHNAKTKPREEQYNSTYRVVSVLTVLHQDWLNGKEYKCKVSNKALPAPIEKTISKAKGQPREPRVYTLPPCRDELTKNQVSLTCLVKGFYPSDIAVEWESNGQPENNYKTTPPVLVSDGSFTLYSKLTVDKSRWQQGNVFSCSVMHEALHNHYTQKSLSLSPG
heavy: B1 heavy with A239L, A240L, G334P
light: B1 light
notes: As AB0185
For the molecule B2, in test [4], the Kd worked out at 1.58 nM, the koff stood at 0.000901 s⁻¹ and the kon came to 569000 M⁻¹ s⁻¹.

B3: AB0237-Dead-2D (other)
chain: B1 chain with A260L, A261L, G355P
heavy: B1 heavy with A239L, A240L, G334P
light: DIQMTQSPSTLSASVGDRVTITCRASNSISSWLAWYQQKPGKAPKLLIYEASSTKSGVPSRFSGSGSGTEFTLTISSLQPDDFATYYCQQYDDLPTFGGGTKVEIKRTVAAPSVFIFPPSDEQLKSGTASVVCLLNNFYPREAKVQWKVDNALQSGNSQESVTEQDSKDSTYSLSSTLTLSKADYEKHKVYACEVTHQGLSSPVTKSFNRGEC
notes: also called AB0237 NKG2D dead arm variant
As to B3, the EC50 was 2.35 nM in test [1], 0.63 nM in test [2] and 1.19 nM in test [3]. For the same molecule, the “FOB (fold over background)” value is 357 fold in test [1], 14 fold in test [2] and 59 fold in test [3].

For the origin of these results see patent publication US20220119534A1 (DRAGONFLY THERAPEUTICS, published 2022).
